Test results from paper PMC6355029, “Structure of the DP1–DP2 PolD complex bound with DNA and its implications for the evolutionary history of DNA and RNA polymerases”.
One block for each molecule: values may come before it.

What was measured:
[1] = molecular target: Pyrococcus abyssi PolD DP1 subunit, exonuclease-deficient variant H451A, full length (Pyrococcus abyssi) (UniProt Q9V2F3); assay: AUC; sedimentation velocity of the copurified PolD complex at 0.2, 0.5 and 1 mg/ml, 42,000 rpm, 20°C; continuous c(s) distribution (Sedfit); sediments at 8 S, frictional ratio 1.4
[2] = molecular target: T1, PolD DP1 H451A (exonuclease-deficient small subunit);PolD DP2 (large catalytic subunit) (Pyrococcus abyssi;Pyrococcus abyssi, UniProt Q9V2F3;Q9V2F4;Q9V2F4 1-619;1-954;1140-1455, H451A|); assay: fluorescence anisotropy; Fluorescence anisotropy: 20 mM sodium succinate pH 6, 100 mM NaCl, 25 C, 5 nM HEX-DNA, PolD up to 600 nM, DP2(1-1061) up to 6 uM; settings: protein: recombinant;recombinant; tags: N-terminal 14xHis, TEV-cleaved;; copies: 1;1;1; 3'-HEX in assay text; blunt, 25 bp
[3] = molecular target: T1, PolD DP1 H451A (exonuclease-deficient …); assay: as above; settings: protein: recombinant;recombinant; tags: N-terminal 14xHis, TEV-cleaved;; copies: 1;1;1; 3'-HEX in assay text; 18 bp duplex, 5' overhang 7 nt on template
[4] = molecular target: T1, PolD DP1 H451A (exonuclease-deficient …); assay: cryo-EM structure; Zn2+ and Fe3+ in protein; no nucleotide; Fluorescence anisotropy: 20 mM sodium succinate pH 6, 100 mM NaCl, 25 C, 5 nM HEX-DNA, PolD up to 600 nM, DP2(1-1061) up to 6 uM; settings: protein: recombinant;recombinant; tags: N-terminal 14xHis, TEV-cleaved;; copies: 1;1;1; 15 bp duplex, 5' overhang 5 nt on template

T1 sequence (Q9V2F3 whole entry H451A, chain 1 of 3): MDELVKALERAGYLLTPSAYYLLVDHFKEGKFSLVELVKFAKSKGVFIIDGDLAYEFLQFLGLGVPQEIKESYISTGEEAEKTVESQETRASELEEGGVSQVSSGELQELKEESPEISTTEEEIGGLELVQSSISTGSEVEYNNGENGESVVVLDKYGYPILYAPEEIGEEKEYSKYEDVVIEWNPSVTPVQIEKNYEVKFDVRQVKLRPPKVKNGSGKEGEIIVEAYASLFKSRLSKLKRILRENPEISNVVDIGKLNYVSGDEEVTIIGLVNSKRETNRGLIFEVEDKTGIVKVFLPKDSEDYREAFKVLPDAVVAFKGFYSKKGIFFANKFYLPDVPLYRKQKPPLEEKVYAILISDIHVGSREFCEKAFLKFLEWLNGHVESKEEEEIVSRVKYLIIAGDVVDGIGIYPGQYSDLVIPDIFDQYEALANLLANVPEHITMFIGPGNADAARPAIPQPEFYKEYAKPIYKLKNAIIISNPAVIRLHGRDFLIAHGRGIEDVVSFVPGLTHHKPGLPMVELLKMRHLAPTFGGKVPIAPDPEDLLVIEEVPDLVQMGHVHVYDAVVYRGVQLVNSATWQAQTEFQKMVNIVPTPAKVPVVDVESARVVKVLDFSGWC
T1 sequence (Q9V2F4 1-954, chain 2 of 3): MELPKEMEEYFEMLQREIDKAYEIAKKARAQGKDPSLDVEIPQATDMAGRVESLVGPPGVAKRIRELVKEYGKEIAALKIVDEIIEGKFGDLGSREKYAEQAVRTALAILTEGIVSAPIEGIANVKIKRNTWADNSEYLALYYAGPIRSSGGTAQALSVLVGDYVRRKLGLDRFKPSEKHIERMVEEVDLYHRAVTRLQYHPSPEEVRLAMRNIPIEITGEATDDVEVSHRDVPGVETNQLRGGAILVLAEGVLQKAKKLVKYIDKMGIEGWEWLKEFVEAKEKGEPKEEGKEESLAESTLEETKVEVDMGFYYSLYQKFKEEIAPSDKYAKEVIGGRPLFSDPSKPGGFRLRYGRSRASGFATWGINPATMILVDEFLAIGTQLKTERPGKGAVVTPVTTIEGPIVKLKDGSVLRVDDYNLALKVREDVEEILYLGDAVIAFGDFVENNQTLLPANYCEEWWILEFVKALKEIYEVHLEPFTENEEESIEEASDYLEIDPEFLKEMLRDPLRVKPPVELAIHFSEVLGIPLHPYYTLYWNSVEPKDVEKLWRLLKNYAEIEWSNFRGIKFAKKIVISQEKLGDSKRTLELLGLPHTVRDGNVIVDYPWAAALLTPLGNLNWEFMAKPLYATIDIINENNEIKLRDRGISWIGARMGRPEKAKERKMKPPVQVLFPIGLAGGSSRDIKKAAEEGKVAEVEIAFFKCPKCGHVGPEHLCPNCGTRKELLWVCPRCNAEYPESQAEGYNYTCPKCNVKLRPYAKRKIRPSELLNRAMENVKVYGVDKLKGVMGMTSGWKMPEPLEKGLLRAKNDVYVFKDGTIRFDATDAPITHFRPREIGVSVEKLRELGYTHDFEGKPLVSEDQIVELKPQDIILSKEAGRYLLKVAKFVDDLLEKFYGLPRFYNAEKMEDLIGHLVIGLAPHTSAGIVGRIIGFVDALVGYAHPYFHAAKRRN
T1 sequence (Q9V2F4 1140-1455, chain 3 of 3): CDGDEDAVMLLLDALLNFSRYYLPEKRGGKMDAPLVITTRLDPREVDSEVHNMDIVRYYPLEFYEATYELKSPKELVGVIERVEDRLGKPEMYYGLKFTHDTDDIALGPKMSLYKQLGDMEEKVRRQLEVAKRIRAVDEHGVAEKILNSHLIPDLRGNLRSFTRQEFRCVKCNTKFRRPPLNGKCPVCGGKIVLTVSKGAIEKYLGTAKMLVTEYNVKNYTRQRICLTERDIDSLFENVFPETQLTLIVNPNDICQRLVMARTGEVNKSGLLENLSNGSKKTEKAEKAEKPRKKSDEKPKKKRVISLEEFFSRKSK
Chain of Pyrococcus abyssi PolD DP1 subunit, exonuclease-deficient variant H451A, full length (Pyrococcus abyssi) (Q9V2F3 whole entry H451A): as the sequence (Q9V2F3 whole entry H451A, chain 1 of 3) above

stoichiometry N [1]: 1
Molecule: Pyrococcus abyssi PolD DP2 subunit, full length (from UniProt Q9V2F4 1-1455) (enzyme)

B1: HEX dsDNA (dsDNA)
DNA 1: CGCCGGGCCGAGCCGTGCACGACCT
DNA 2: AGGTCGTGCACGGCTCGGCCCGGCG
binding signal [2]: 6.5 fold weaker Kd than primer-template

B2: HEX primer/template (dsDNA)
DNA 1: CGCCGGGCCGAGCCGTGC
DNA 2: AGGTCGTGCACGGCTCGGCCCGGCG
Kd [3]: 0.015 µM

B3: cryo-EM primer/template (dsDNA)
DNA 1: GAGACGGGCCGCGTC
DNA 2: ACTTTGACGCGGCCCGTCTC
binding result [4]: binds
